Data reported in PMC6695192.

Legend:
[1] = molecular target: GOLD-EVD68 3A fusion protein, wild type (human | enterovirus D68) (UniProt Q9H3P7); test: SEC
[2] = molecular target: GOLD-EVD68 3A fusion protein, wild type (human | enterovirus D68) (UniProt Q9H3P7); test: […]; 30 mM Tris pH 7.4, 150 mM NaCl, 1 mM TCEP; […]
[3] = molecular target: GB1-fused cytoplasmic domain of the enterovirus D68 3A protein, wild type (enterovirus D68); test: SEC
[4] = molecular target: EGFP-fused ACBD3 GOLD domain (human) (UniProt Q9H3P7); test: MST; EGFP-fused GOLD domain at a constant 150 nM, GB1-fused 3A cytoplasmic domain in a series of concentrations; 30 mM Tris pH 7.4, 150 mM NaCl, 3 mM β-mercaptoethanol; Monolith NT.115
[5] = molecular target: GOLD-3A fusion protein LVVY mutant N-terminally fused to mAmetrine or mPlum (UniProt Q9H3P7); test: FRET by flow cytometry in HeLa cells (self-association of mAmetrine- and mPlum-fused GOLD-3A); conditions: mean FRET signal at a fixed acceptor signal (dashed line in f, acceptor fluorescence 100 a.u.); three independent experiments; p-value = 0.004; parent: est. …; read off a plot

GOLD-EVD68 3A fusion protein, wild type (from UniProt Q9H3P7)
stoichiometry N [1]: 2
stoichiometry N [2]: 2

GB1-fused cytoplasmic domain of the enterovirus D68 3A protein, wild type (domain or fragment)
stoichiometry N [3]: 2
Kd [4]: 1000 nM

GB1-fused cytoplasmic domain of the rhinovirus B14 3A protein (domain or fragment)
Kd [4]: 1000 nM

wild-type GOLD-3A fusion protein N-terminally fused to mAmetrine or mPlum (from UniProt Q9H3P7) L25A; V29A; V34A; Y37A
response [5]: 3.9 a.u.

GB1-fused cytoplasmic domain of the enterovirus A71 3A protein (domain or fragment)
Kd [4]: 15000 nM
